From patent publication US7105488B1, “G protein-coupled receptor antagonists” (priority 1998, dated 2006)
Where a SMILES comes first, the peptide text is derived from it. Where no end group is shown, it is not given here. rhodamine = not defined here; Rhod = not defined here

What was measured:
CXCR4 receptor [1] = biological target: CXCR4 receptor (Homo sapiens, UniProt P61073); assay: Inhibition of SDF-1α-induced intracellular calcium release (Fura-2/AM) in HeLa and U87 cells; assay type: cell-based; settings: for Decrease in antagonist potency relative to F-2-2: structure-activity of TM2 peptides
Method: The effect of the peptides on CXCR4-mediated calcium fluxes in HeLa cells that naturally express the CXCR4 receptor and U87 cells stably expressing the CXCR4 receptor was tested as follows. Cells grown on Nunc cover glass chamber slides were incubated with 1 micromolar Fura-2/AM for 20 min in a CO2-incubator, rinsed with PBS and mounted on the stage of a Zeiss Axiovert inverted microscope. [Ca^2+]i measurements were performed using an Attofluor digital imaging system (Atto Instruments, Rockville, Md.). Fluorescence of Fura was excited at alternating wavelength of 340 and 380 nm. […] Calibrations of [Ca^2+]i signals were performed using Ca^2+ standards containing 1 micromolar Fura. CXCR4 antagonists were tested on HeLa cells and U87 cells. Stromal cell-derived factor-1α (SDF-1α) was used as a specific CXCR4 agonist. CCR5 antagonists, which were used in selectivity studies as described below, were tested on HEK (human kidney […]) cells stably expressing the CCR5 receptor and RANTES was used as an agonist. The antagonist activity of the peptides was evaluated by measuring the inhibition of agonist-evoked intracellular Ca^2+i release. These measurements were carried out in Fura-2/AM-treated cells, utilizing an Attofluor digital imaging system as described above. The agonist was SDF-1 α.

[2] = biological target: T1, rat cholecystokinin receptor type A (CCKAR) (rat, UniProt P30551 1-444); assay: cell-based or functional assay
T1 sequence (looked up): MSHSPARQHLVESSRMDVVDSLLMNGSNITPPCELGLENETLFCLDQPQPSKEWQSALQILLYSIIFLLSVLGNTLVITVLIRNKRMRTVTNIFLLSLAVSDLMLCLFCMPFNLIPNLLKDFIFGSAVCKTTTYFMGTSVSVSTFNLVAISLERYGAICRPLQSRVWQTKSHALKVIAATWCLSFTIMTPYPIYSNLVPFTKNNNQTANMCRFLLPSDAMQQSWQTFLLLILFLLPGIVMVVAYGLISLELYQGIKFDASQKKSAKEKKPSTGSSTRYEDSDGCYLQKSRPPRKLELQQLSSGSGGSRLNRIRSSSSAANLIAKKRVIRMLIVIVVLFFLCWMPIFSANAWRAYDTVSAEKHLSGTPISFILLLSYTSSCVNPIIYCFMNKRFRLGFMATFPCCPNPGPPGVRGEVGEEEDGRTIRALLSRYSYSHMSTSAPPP

CXCR4 receptor [3] = biological target: T2, CXCR4 receptor (UniProt P61073 1-352, limits assumed); assay: cell-based or functional assay
CXCR4 receptor [4] = biological target: T2, CXCR4 receptor; assay: cell-based or functional assay; remark: listed apart in the source
CXCR4 receptor [5] = biological target: T2, CXCR4 receptor; assay: cell-based or functional assay; remark: listed apart in the source
CXCR4 receptor [6] = biological target: T2, CXCR4 receptor; assay: cell-based or functional assay; remark: listed apart in the source
[7] = biological target: T1, rat cholecystokinin receptor type A …; assay: inhibition of binding of fluorescent agonist RG-CCK-8 to CHO cells expressing rat CCKAR, quantitative confocal laser scanning microscopy
Method: None of CCKAR-derived peptides served as antagonists of chemokine receptors and none could inhibit HIV-1 infection. The activity of the antagonists in inhibiting signaling through the receptor was compared to the ability to prevent agonist binding (Table 4). Inhibition of signaling was assessed in CCK-8 evoked intracellular calcium release in FURA-2/AM treated CHO cells stably transfected with rat CCKAR (Tarasova, et al. (1997) *J. Biol. Chem.* 272:14817). Inhibition of ligand binding was measured with the use of a fluorescent agonist, rhodamine green CCK-8 (RG-CCK-8) and quantitative confocal laser scanning microscopy (Tarasova, et al. (1997) *J. Biol. Chem.* 272:14817). Peptides derived from the first, second, and sixth transmembrane domains inhibited CCK-induced signaling through the CCKAR receptor. […] A peptide derived from the sixth domain, CCKAR-6-1, was active in inhibition of signaling, but had very low activity in inhibition of RG-CCK-8 binding.

Chain of CXCR4 receptor (Homo sapiens, UniProt P61073) (P61073 whole entry): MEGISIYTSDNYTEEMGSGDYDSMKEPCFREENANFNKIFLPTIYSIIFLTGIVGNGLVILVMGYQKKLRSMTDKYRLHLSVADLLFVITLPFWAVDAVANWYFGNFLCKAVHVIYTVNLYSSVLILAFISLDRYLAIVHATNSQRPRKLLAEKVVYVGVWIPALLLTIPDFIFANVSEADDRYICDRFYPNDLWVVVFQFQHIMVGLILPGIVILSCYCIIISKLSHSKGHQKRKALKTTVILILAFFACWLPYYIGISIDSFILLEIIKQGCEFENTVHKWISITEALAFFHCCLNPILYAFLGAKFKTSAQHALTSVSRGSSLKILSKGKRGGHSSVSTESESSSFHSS
T2 sequence (P61073 whole entry): as above

## CC[C@H](C)[C@H](NC(=O)CNC(=O)[C@@H](NC(=O)[C@H](Cc1ccc(O)cc1)NC(=O)[C@H](Cc1ccc(O)cc1)NC(=O)[C@@H]1CCCN1C(=O)[C@H](CC(C)C)NC(=O)[C@H](Cc1c[nH]c2ccccc12)NC(=O)[C@H](CS)NC(=O)[C@H](C)NC(=O)[C@H](Cc1ccccc1)NC(=O)[C@H](Cc1ccccc1)NC(=O)[C@H](C)NC(=O)[C@H](CC(C)C)NC(=O)[C@@H](NC(=O)[C@H](CC(C)C)NC(=O)[C@@H](NC(=O)[C@@H](N)C(C)C)[C@@H](C)CC)[C@@H](C)CC)[C@@H](C)CC)C(=O)N[C@@H](CO)C(=O)N[C@H](C(=O)N[C@@H](CC(=O)O)C(=O)O)[C@@H](C)CC [Peptide F-6-1] (H-VILILAFFACWLPYYIGISID-OH; N-terminus and C-terminus assumed)
CXCR4 receptor [1]; SDF-1α-induced intracellular calcium release, Table 2
  Concentration, required for inhibition of signal transduction: 10 µM

## AcLLFVITLPFWAVDAVANWYFGNDDK(Rhod)D (Ac-LLFVITLPFWAVDAVANWYFGNDDK(rhodamine)D; reading uncertain) [Rhod - AcF-2-2]
CXCR4 receptor [1]; TM2-derived peptides, Table 3
  Concentration, required for complete inhibition of [Ca^2+I] release: 8 µM

## DDIFLPTIYSIIFLTGIV-HN2 (DDIFLPTIYSIIFLTGIV-NH2) [Peptide F-1-5]
CXCR4 receptor [1]; SDF-1α-induced, Table 1
  Concentration, required for complete inhibition of [Ca^2+I] release: >30 µM

## KAVHVIYTVNLYSSVLILAFISL-NH2 [Peptide F-3-1]
CXCR4 receptor [1]; SDF-1α-induced, Table 1
  Concentration, required for complete inhibition of [Ca^2+I] release: >50 µM

## KVYVGVWIPALLLTLPDFIF (KVYVGVWIPALLLTIPDFIF; F-4-1 GPCR CXCR4) [Peptide F-4-1]
CXCR4 receptor [1]
  Antagonist activity on CXCR4 signaling, in words: abolished the antagonist activity
CXCR4 receptor [1]; SDF-1α-induced, Table 1
  Concentration, required for complete inhibition of [Ca^2+I] release: >50 µM

## LLFVITLPFWAVDAVANDD (F-2-5 GPCR CXCR4) [Peptide F-2-5]
CXCR4 receptor [1]; TM2-derived peptides, Table 3
  Concentration, required for complete inhibition of [Ca^2+I] release: 10 µM

## LLFVITLPFWAVDAVANWYFGN (F-2-1 GPCR CXCR4) [Peptide F-2-1]
CXCR4 receptor [1]; TM2-derived peptides, Table 3
  Concentration, required for complete inhibition of [Ca^2+I] release: 5 µM
CXCR4 receptor [1]
  Decrease in antagonist potency relative to F-2-2: more than ten-fold

## LLFVITLPFWAVDAVANWYFGNKK (F-2-8 GPCR CXCR4) [Peptide F-2-8]
CXCR4 receptor [1]; TM2-derived peptides, Table 3
  Concentration, required for complete inhibition of [Ca^2+I] release: 20 µM

## VITLPFWAVDAVANWYFGNKK (F-2-4 GPCR CXCR4) [Peptide F-2-4]
CXCR4 receptor [1]; TM2-derived peptides, Table 3
  Concentration, required for complete inhibition of [Ca^2+I] release: >50 µM
CXCR4 receptor [1]
  Decrease in antagonist potency relative to F-2-2: 20 fold

B1: CCKAR-TM-4-2 (#71) (peptide)
peptide: VIAATWCLSFTIMTPYPIYSNLVPFTDD
[2]
  Concentration, required for inhibition of signaling (CCK-8-induced intracellular calcium release): > 50 µM

B2: F-2-6 (peptide)
peptide: LSVADLLFVITLPFWAVDAVANDD
CXCR4 receptor [3]
  Concentration, required for complete inhibition of [Ca^2+I] release: 20 µM

B3: F-6-1 (peptide)
peptide: VILILAFFACWLPYYIGISID
CXCR4 receptor [4]
  Concentration, required for complete inhibition of [Ca^2+I] release (SDF-1α-induced): 10 µM
CXCR4 receptor [5]
  Concentration, required for inhibition of signal transduction (µM) (SDF-1α-induced intracellular calcium release): 10 µM
  EC50 in anti-HIV-1 assay (µM) (cytoprotection, CEM-SS cells infected with HIV-1RF): > 50 µM

B4: F-2-5 (peptide)
peptide: LLFVITLPFWAVDAVANDD
CXCR4 receptor [3]
  Concentration, required for complete inhibition of [Ca^2+I] release: 10 µM
CXCR4 receptor [6]
  potency relative to F-2-2: 20 fold

B5: CCKAR-TM-5-3 (#45) (peptide)
peptide: DDQTFLLLILFLLPGIVMVVAYGL
[2]
  Concentration, required for inhibition of signaling (CCK-8-induced intracellular calcium release): > 50 µM

B6: F-4-2 (peptide)
peptide: VYVGVWIPALLLTIPDFIFANDD
CXCR4 receptor [5]
  Concentration, required for inhibition of signal transduction (µM) (SDF-1α-induced intracellular calcium release): 5 µM
  EC50 in anti-HIV-1 assay (µM) (cytoprotection, CEM-SS cells infected with HIV-1RF): 0.3 µM

B7: AcF-2-5 (peptide)
peptide: Ac-LLFVITLPFWAVDAVANDD
CXCR4 receptor [3]
  Concentration, required for complete inhibition of [Ca^2+I] release: 10 µM

B8: CCKAR-TM-2-1 (peptide)
peptide: FLLSLAVSDLMLCLFCMPFNLP
notes: also called CCKAR-2-1; CCKAR-TN-2-1
[7]
  IC50: 500 nM
[2]
  Concentration, required for inhibition of signaling (CCK-8-induced intracellular calcium release): 2 µM

B9: F-7-1 (peptide)
peptide: ALAFFHCCLNPILYAFLGAK-NH2
modifications: cysteine pairing not given here
CXCR4 receptor [4]
  Concentration, required for complete inhibition of [Ca^2+I] release (SDF-1α-induced): > 100 µM

B10: F-2-1 (peptide)
peptide: LLFVITLPFWAVDAVANWYFGN
CXCR4 receptor [3]
  Concentration, required for complete inhibition of [Ca^2+I] release: 5 µM
CXCR4 receptor [6]
  antagonist potency relative to F-2-2: > 10 fold
CXCR4 receptor [4]
  Concentration, required for complete inhibition of [Ca^2+I] release (SDF-1α-induced): 5 µM

B11: F-5-1 (peptide)
peptide: HIMVGLILPGIVILSCYCIII-NH2
modifications: cysteine pairing not given here
CXCR4 receptor [4]
  Concentration, required for complete inhibition of [Ca^2+I] release (SDF-1α-induced): > 50 µM

B12: CCKAR-TM-6-4 (#77) (peptide)
peptide: IVVLFFLCWMPIFSANAWRAYDTVDD
[7]
  IC50: > 50000 nM
[2]
  Concentration, required for inhibition of signaling (CCK-8-induced intracellular calcium release): 5 µM

B13: F-2-8 (peptide)
peptide: LLFVITLPFWAVDAVANWYFGNKK
CXCR4 receptor [3]
  Concentration, required for complete inhibition of [Ca^2+I] release: 20 µM
CXCR4 receptor [6]
  antagonist activity relative to F-2-2: 100 fold

B14: Rhod - AcF-2-2 (peptide)
peptide: Ac-LLFVITLPFWAVDAVANWYFGNDDK(Rhod)D
modifications: reading uncertain
CXCR4 receptor [3]
  Concentration, required for complete inhibition of [Ca^2+I] release: 8 µM

B15: F-2-4 (peptide)
peptide: VITLPFWAVDAVANWYFGNKK
CXCR4 receptor [3]
  Concentration, required for complete inhibition of [Ca^2+I] release: > 50 µM

B16: F-4-1 (peptide)
peptide: KVYVGVWIPALLLTIPDFIF
CXCR4 receptor [4]
  Concentration, required for complete inhibition of [Ca^2+I] release (SDF-1α-induced): > 50 µM

B17: F-2-2 (peptide)
peptide: LLFVITLPFWAVDAVANWYFGNDD
CXCR4 receptor [3]
  Concentration, required for complete inhibition of [Ca^2+I] release: 0.2 µM
CXCR4 receptor [5]
  Concentration, required for inhibition of signal transduction (µM) (SDF-1α-induced intracellular calcium release): 0.2 µM
  EC50 in anti-HIV-1 assay (µM) (cytoprotection, CEM-SS cells infected with HIV-1RF): 2.27 µM

B18: CCKAR-TM-1-6 (peptide)
peptide: DDEWQSALQILLYSIIFLLSVLGNTLVITV
notes: Synthetic peptide from the first transmembrane domain of rat CCKAR
[7]
  IC50: 20000 nM
[2]
  Concentration, required for inhibition of signaling (CCK-8-induced intracellular calcium release): 50 µM
